Consider seven molecules from patent US20100034738A1 (IMMUNOMEDICS, published 2010).

Assay [1] has as its target T1, CD20 (human B lymphocyte-restricted differentiation antigen, Bp35) (human) (UniProt P11836).
T1 sequence (looked up): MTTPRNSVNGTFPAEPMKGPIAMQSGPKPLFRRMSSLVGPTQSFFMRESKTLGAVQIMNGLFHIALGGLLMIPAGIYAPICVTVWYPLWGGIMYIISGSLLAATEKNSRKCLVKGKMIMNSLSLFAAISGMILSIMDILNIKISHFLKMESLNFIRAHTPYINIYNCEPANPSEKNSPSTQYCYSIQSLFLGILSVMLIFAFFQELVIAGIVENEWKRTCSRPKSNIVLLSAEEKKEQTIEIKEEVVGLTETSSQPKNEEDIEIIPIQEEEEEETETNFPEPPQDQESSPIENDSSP
In words: flow cytometry, PE-labelled MAb dissociating from Raji cells, without competing veltuzumab-Fab'-NEM. A general note: A flow cytometer gives signals particle by particle.

The target of assay [2] is T2, CD20 (human B lymphocyte-restricted differentiation antigen, Bp35) (human, UniProt P11836 1-297).
T2 construct: whole, on cells; Endogenous CD20 on lymphoma cell lines; also called cell-surface CD20
T2 sequence (looked up): T1 sequence (looked up)
Described as above. The method, then: (§1) Cells (Daudi, Raji, or Ramos) in 0.5 mL of CM (phenol red-free RPMI 1640 media supplemented with 10% FBS) at 1×10⁶ cells/mL were incubated with 5 μg of each PE-labeled MAb at room temperature for 30 min, pelleted at 400×g, washed twice with CM, resuspended in 1.5 mL of CM, and split into two 0.75-mL aliquots. […] Subsequent measurements were taken at 30-min intervals. The percent maximal binding, which is the quotient of the MFI at T=X divided by that at T=0, was plotted against time, and the results analyzed by Prism software (GraphPad Software Inc., San Diego, Calif.) to yield the half-life or off-rates.

The target in assay [3] is T2, CD20 (human B lymphocyte-restricted …). In words: saturation binding of 125I-labelled MAb to Raji cells, nonlinear regression / Scatchard; apparent KD, replicate assays. The method, then:
(§2) Raji cells (5×10⁵) were incubated with radioiodinated MAbs in an assay volume of 225 μl, using tissue culture media as diluent, for 1 h at 37° C. or room temperature. Cells then were washed twice with PBS containing 1% horse serum, and cell pellets were counted in a gamma counter. The MAbs were titrated at a 2:3 serial dilution starting with approximately 2×10⁶ cpm/2 μg MAb/tube, run in triplicate. Non-specific binding was measured by including replicate unlabeled MAb.

Assay [4] shares this target. In words: direct cell-surface saturation binding of 125I-labelled MAb to Raji cells; non-linear regression, one-site binding model (Prism); one representative of three experiments. As for the experimental part:
FIG. 4. […] Bₘₐₓ and Kd were determined by non-linear regression analysis using a one-site binding model with Prism software.
as §2

Assay [5] has the same target. In words: flow cytometry, dissociation of PE-labelled MAb from live Daudi cells at 37 C with excess veltuzumab Fab'-NEM; % T=0 MFI against time, one-phase exponential decay fit [table, column Daudi]. The method, then:
(§3) FIG. 5. […] The off-rate was determined by non-linear regression (one phase exponential decay) and P-values were generated by F-test using GraphPad Prism software.
as §1

The target is the same in assay [6]. In words: flow cytometry, dissociation of PE-labelled MAb from live Ramos cells at 37 C with excess veltuzumab Fab'-NEM; % T=0 MFI against time, one-phase exponential decay fit [table, column Ramos]. As for the experimental part:
as §3, §1

Assay [7] has the same target. In words: flow cytometry, dissociation of PE-labelled MAb from live Raji cells (exp 1) at 37 C with excess veltuzumab Fab'-NEM; % T=0 MFI against time, one-phase exponential decay fit [table, column Raji (exp 1)]. As for the experimental part:
as §3, §1

The target is the same in assay [8]. In words: flow cytometry, dissociation of PE-labelled MAb from live Raji cells (exp 2) at 37 C with excess veltuzumab Fab'-NEM; % T=0 MFI against time, one-phase exponential decay fit [table, column Raji (exp 2)]. The method, then:
as §1

Assay [9] shares this target. In words: flow cytometry off-rate on lymphoma cells, with or without a competitive binder (summary of Example 5). The method, then: as §1
For assay [10], the target named is T1, CD20 (human B lymphocyte-restricted differentiation antigen, Bp35) (human). In words: cell-based or functional assay.
The target of another assay is anti-idiotype antibodies. In words: binding of radioiodinated MAb to anti-idiotype antibodies.
The target of assay [11] is T2, CD20 (human B lymphocyte-restricted …). In words: flow cytometry, PE-labelled MAb dissociating from Daudi, Ramos and Raji cells at 37 C with excess veltuzumab-Fab'-NEM. As for the experimental part:
as §1

Assay [12] shares this target. In words: flow cytometry, PE-labelled MAb dissociating from Raji cells at 37 C with excess veltuzumab-Fab'-NEM. As for the experimental part: as §1

Residue numbers refer to the chain shown, from its start. Names and notes keep the numbering of the source. Bounds are passed on as bounds.

The molecule “1F5, murine anti-CD20 monoclonal antibody” returned a dissociation half-life in [1] of 195 min.

B1: rituximab (chimeric anti-CD20, c2B8) (antibody, V domains shown)
VH: QVQLQQPGAELVKPGASVKMSCKASGYTFTSYNMHWVKQTPGRGLEWIGAIYPGNGDTSYNQKFKGKATLTADKSSSTAYMQLSSLTSEDSAVYYCARSTYYGGDWYFNVWGQGTTVTVSS
VL: QIVLSQSPAILSASPGEKVTMTCRASSSVSYIHWFQQKPGSSPKPWIYATSNLASGVPVRFSGSGSGTSYSLTISRVEAEDAATYYCQQWTSNPPTFGGGTK
notes: Commercial chimeric antibody; also called IDEC-c2B8; Rmab
On to B1, for which the dissociation half-life in assay [2] is 94 min. For the same molecule, the results for the Kd in assay [3] and in [4] were 6.7 to 8.63 nM and 8.62 nM, respectively. The “Dissociation Rates (T 1/2 Min)” value in [5] came to 20.1 min; in [6], 19 min; in assay [7] it was 24.3 min; in assay [8], 21.4 min.

B2: cA20, chimeric anti-CD20 antibody (antibody, V domains shown)
VH: B1 VH with N109D
VL: DIQLTQSPAILSASPGEKVTMTCRASSSVSYIHWFQQKPGSSPKPWIYATSNLASGVPVRFSGSGSGTSYSLTISRVEAEDAATYYCQQWTSNPPTFGGGTKLEIK
Consider B2, for which the “off-rate, fold slower than rituximab or D101N” value in assay [9] was around 2.5 fold. For the same molecule, the “Dissociation Rates (T 1/2 Min)” value in assay [5] was 58.8 min; in [6], 54.8 min; in assay [7], 62 min.

B3: V102Y, variant of hA20 with Val to Tyr at Kabat position 102 in the CDR3 of VH (antibody, name in Kabat numbering, V domains shown)
VH: QVQLQQSGAEVKKPGSSVKVSCKASGYTFTSYNMHWVKQAPGQGLEWIGAIYPGNGDTSYNQKFKGKATLTADESTNTAYMELSSLRSEDTAFYYCARSTYYGGDWYFDYWGQGTTVTVSS
VL: DIQLTQSPSSLSASVGDRVTMTCRASSSVSYIHWFQQKPGKAPKPWIYATSNLASGVPVRFSGSGSGTDYTFTISSLQPEDIATYYCQQWTSNPPTFGGGTKLEIK
On to B3, for which, in assay [10], the ADCC (% lysis), Daudi targets, Donor 001 is 47.5 % lysis; the ADCC (% lysis), Daudi targets, Donor 006 turned out to be 24.2 % lysis; the ADCC (% lysis), Daudi targets, Donor 009 amounted to 33.4 % lysis.

B4: YDE, Fc variant of V102Y with S239D and I332E in the CH2 domain (antibody, name in Kabat numbering, V domains shown)
VH: B3 VH
VL: B3 VL
Regarding B4, in [10], the ADCC (% lysis), Daudi targets, Donor 001 stood at 58.3 % lysis; the ADCC (% lysis), Daudi targets, Donor 006 stood at 31.5 % lysis; the ADCC (% lysis), Daudi targets, Donor 009 was 54.5 % lysis.

B5: veltuzumab (hA20), humanized anti-CD20 antibody (antibody, V domains shown)
VH: B3 VH with Y110V
VL: B3 VL
notes: It was 125I-labelled in the Scatchard assay and PE-labelled (Zenon kit) in the off-rate assay; also called v-mab; Vmab
For B5, the immunoreactivity in the assay with anti-idiotype antibodies was above 90%. This molecule had a dissociation half-life in [2] of 281 min. Besides, the “off-rate, fold slower than rituximab or D101N” value in assay [9] is around 2.5 fold. For the same molecule, in assay [11], the “dissociation half-life, fold longer than rituximab” value is 2.7 fold. Also, the Kd was 6.23 to 12 nM in [3] and 10.8 nM in assay [4]. Further, the “Dissociation Rates (T 1/2 Min)” value in assay [5] is 54.4 min; in assay [6], 57 min; in assay [7], 59.1 min; in [8], 61.8 min.

B6: D101N, mutant of veltuzumab with Asp to Asn at Kabat position 101 in CDRH3 (antibody, name in Kabat numbering, V domains shown)
VH: B3 VH with D109N, Y110V
VL: B3 VL
notes: Same CDRs as rituximab and identical FRs to veltuzumab; also called D101N-hA20
Regarding B6, the dissociation half-life in assay [2] was 42 min. For the same molecule, in assay [12], the “off-rate, fold faster than rituximab” value was determined as 2 fold and the “off-rate, fold faster than veltuzumab” value amounted to 6 fold. In assay [8], the “Dissociation Rates (T 1/2 Min)” value was found to be 9.4 min.
